The assay addresses GAPDH (human (endogenous in U2OS)) (UniProt P04406). The experiment in a line: cross-linking; titration of formaldehyde on intact adherent U2OS cells, quenched with Tris, extracted in SDS denaturing buffer, immunoblot of total cell lysates; 6% formaldehyde optimal.

Sequence of GAPDH, P04406 1-335 (enzyme; other documents disagree on this pair) (P04406 whole entry): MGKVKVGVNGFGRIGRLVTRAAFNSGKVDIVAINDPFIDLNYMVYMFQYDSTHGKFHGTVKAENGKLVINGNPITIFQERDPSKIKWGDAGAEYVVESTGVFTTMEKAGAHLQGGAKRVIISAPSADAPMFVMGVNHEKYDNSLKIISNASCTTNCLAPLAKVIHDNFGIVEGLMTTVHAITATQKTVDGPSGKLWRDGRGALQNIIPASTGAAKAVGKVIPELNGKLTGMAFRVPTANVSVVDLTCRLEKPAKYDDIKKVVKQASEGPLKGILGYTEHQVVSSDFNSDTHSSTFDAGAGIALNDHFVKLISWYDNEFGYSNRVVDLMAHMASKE

With “GAPDH, P04406 1-335 (enzyme; other documents disagree on this pair)”, the stoichiometry N amounted to 4.

Values taken from publication PMC4937518.
